B1: ^25, 28Pro-h-Amylin (peptide)
peptide: KCNTATCATQRLANFLVHSSNNFGPILPSTNVGSNTY
B2: ^2, 7Cyclo-[^2Asp,^7Lys]-h-Amylin (peptide)
peptide: B1 peptide with C2D, C7K, P25A, P28S
modifications: lactam 2-7; not fully specified (C-terminus)
B3: ^25Pro^26Val^28, 29Pro-h-Amylin (peptide)
peptide: B1 peptide with I26V, S29P
B4: ^18Arg^25, 28, 29Pro-h-Amylin (peptide)
peptide: B1 peptide with H18R, S29P
B5: ^18Arg^25, 28Pro-h-Amylin (peptide)
peptide: B1 peptide with H18R
B6: ^25, 28, 29Pro-h-Amylin (peptide)
peptide: B1 peptide with S29P
modifications: disulfide 2-7; not fully specified (C-terminus)
B7: des-^1Lys^25, 28Pro-h-Amylin (peptide)
peptide: CNTATCATQRLANFLVHSSNNFGPILPSTNVGSNTY
B8: des-^1Lys^18Arg^25, 28Pro-h-Amylin (peptide)
peptide: B7 peptide with H17R
B9: des-^1Lys^18Arg^25, 28, 29Pro-h-Amylin (peptide)
peptide: B7 peptide with H17R, S28P
B10: des-^1Lys^25, 28, 29Pro-h-Amylin (peptide)
peptide: B7 peptide with S28P

Experimental findings from patent US20120053118A1 are described below.

Changes are numbered by the printed parent chain. Bridge positions count the residues as written; N and C are the ends. Ends that are not written are not given here.

The target in one assay is amylin receptors (membrane-bound, rat basal forebrain membranes containing the nucleus accumbens and surrounding regions) (rat). As to the kind of experiment: competition with 125I Bolton-Hunter rat amylin on rat basal forebrain membranes.
One may read the IC50 as the point on the concentration scale where inhibition reaches its midpoint. Turning to human amylin (hAmylin) (ligand), the IC50 came to 50 µM. This counts as double-digit micromolar.

The target is the same in another assay. The description is as above. This is another data set of the same source.
In turn, B1 registered an IC50 of 0.026 nM. This counts as picomolar.

B2 gave a concentration for half-maximal inhibition (IC50) of 0.31 nM.

Molecule B3 displayed a half-inhibitory concentration (IC50) of 0.018 nM.

Molecule B4 gave a 50% inhibitory concentration (IC50) of 0.021 nM.

In the case of B5, the concentration for half-maximal inhibition (IC50) came to 0.032 nM.

Molecule B6 came in with a half-inhibitory concentration (IC50) of 0.01 nM.

With B7, the IC50 was determined as 0.085 nM.

Take B8: the IC50 came to 0.082 nM. This IC50 and that of the molecule before are within 1.5-fold of each other.

Take B9: the IC50 was found to be 0.021 nM.

Take B10: the IC50 turned out to be 0.014 nM.
